According to patent publication US20260297183 (published 2026):
Substitutions are numbered along the chain they refer to.

B1: H3_W99H_VL-par (antibody, V domains shown)
VH: QVQLVESGGGVVQPGRSLRLSCAASGFTFSDYGMHWVRQAPGKGLEWVAYISSGGTTIYYADTVKGRFTISRDNSKNTLYLQMNSLRAEDTAVYYCARHTNLYAMDYWGQGTTVTVSS
VL: DIVLTQSPDSLAVSLGERATINCRASKSVSTSGYSYMHWYQQKPGQPPKFLIYLASNLESGVPDRFSGSGSGTDFTLTISSLQAEDVAVYYCQHSREVPYTFGGGTKVEIKR
B2: 51B12 parent (51B12_VH_VL-par) (antibody, V domains shown)
VH: B1 VH with H99W
VL: B1 VL
B3: H3_W99H_L2 (antibody, V domains shown)
VH: B1 VH
VL: B1 VL with L58K
B4: H3_W99H_L1 (51B12_W99H_L1) (antibody, V domains shown)
VH: B1 VH
VL: B1 VL with S32Q

Columns and labels:
[1] = target: T1, huZIP12-ECD-GST (human, UniProt Q504Y0); experiment: SPR
[2] = target: T1, huZIP12-ECD-GST; experiment: SPR, extended dissociation re-test

Binder | Kd [1] | Kd [2]
B1 | ~500 pM | ~300 pM
B2 | – | 1100 pM
B3 | ~500 pM | ~300 pM
B4 | – | ~300 pM
